# Data published in PMC8789040, “Directed evolution of orthogonal RNA–RBP pairs through library-vs-library in vitro selection”.
# Substitutions are numbered along the chain they refer to.
# B1: dKt (dKt_SPR) (structured_RNA)
# RNA: GGCUGGGGCGUCAUCCGAAAGGUGCCCCAGCCAAAUCGACGAAAGACACAGAACG
# B2: Box C/D Kt (Kt_SPR) (structured_RNA)
# RNA: GGAUCGCGUGAUCCGAAAGGUGACGAUCCAAAUCGACGAAAGACACAGAACG
# B3: CS1-M1 (structured_RNA)
# RNA: GGUGGCUGAGAAAGGCGAAAGCCUUGUGAUGCCAUCAAAUCGACGAAAGACACAGAACG
# B4: CS1-M2 (structured_RNA)
# RNA: B3 RNA with U7A, G8U, A29U, U30G
# B5: CS1-M2c (structured_RNA)
# RNA: B3 RNA with U7A, A29U, U30G
# B6: CS1-M2a (structured_RNA)
# RNA: B3 RNA with U7A, G8U, U30G
# B7: CS1 (structured_RNA)
# RNA: B3 RNA with U7A, U30G
# B8: CS1-M3 (structured_RNA)
# RNA: B3 RNA with U7A, A9U, G28U, U30G
# B9: CS1-M2b (structured_RNA)
# RNA: B3 RNA with U7A, G8A, U30G
# B10: CS2 (structured_RNA)
# RNA: GGAUGCAGAGAACGAAAGUUCCAUGACGCAUCCAAAUCGACGAAAGACACAGAACG
# B11: CS2-M4 (structured_RNA)
# RNA: B10 RNA with A26C
# B12: CS2-M1 (structured_RNA)
# RNA: B10 RNA with G8A
# B13: CS2-M3 (structured_RNA)
# RNA: B10 RNA with G25U
# B14: CS2-M2 (structured_RNA)
# RNA: B10 RNA with A9C
# Experiments:
# Details in all cases: protein: recombinant, tags: N-term Twin-Strep-tag, C-term 6xHis
# [1] = target: L7Ae (Archaeoglobus fulgidus (printed A. …, UniProt O29494 1-119)); test: SPR; SPR: 10 mM HEPES pH 7.4, 150 mM NaCl, 1 mM MgCl2, 0.05% P20, 0.25 mM TCEP, 0.1 mg/ml BSA, 25 ug/ml yeast tRNA, 25 C; EMSA: 10 mM HEPES-KOH pH 7.5, 140 mM KCl, 10 mM NaCl, 1 mM MgCl2, 0.1 mM TCEP, 0.01% Tween-20, 10 ug/ml yeast tRNA (1x of the printed 5x buffer)
# Chain of L7Ae (Archaeoglobus fulgidus (O29494 whole entry): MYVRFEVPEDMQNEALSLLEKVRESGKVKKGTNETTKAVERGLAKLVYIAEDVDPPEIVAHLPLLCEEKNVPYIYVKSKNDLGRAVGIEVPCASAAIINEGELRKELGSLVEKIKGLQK
# [2] = target: dL7Ae (Archaeoglobus fulgidus (printed A. …, UniProt O29494 1-119, E34K;K37E;R41E;I88G;E89G;V90G;P91G;C92S)); test: as above
# Chain of dL7Ae (Archaeoglobus fulgidus (O29494 whole entry E34K/K37E/R41E/I88G/E89G/V90G/P91G/C92S): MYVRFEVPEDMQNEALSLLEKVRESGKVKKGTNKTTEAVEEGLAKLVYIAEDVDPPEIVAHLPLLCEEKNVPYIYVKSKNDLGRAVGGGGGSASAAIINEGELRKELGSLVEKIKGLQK
# [3] = target: L7Ae (Archaeoglobus fulgidus, UniProt O29494 2-119); test: SPR (Biacore T200, RNA captured, protein analyte); SPR running buffer: 10 mM HEPES pH 7.4, 150 mM NaCl, 0.05% Surfactant P20, 1 mM MgCl2, 0.25 mM TCEP, 0.1 mg/ml BSA, 25 ug/ml yeast tRNA, 25 C; RNA captured by its 3' docking sequence on biotinylated 2'-OMe RNA
# Chain of L7Ae (O29494 2-119): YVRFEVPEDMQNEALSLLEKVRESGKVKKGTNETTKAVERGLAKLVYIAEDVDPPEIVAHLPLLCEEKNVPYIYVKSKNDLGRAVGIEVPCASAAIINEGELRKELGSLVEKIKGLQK
# [4] = target: dL7Ae (Archaeoglobus fulgidus, UniProt O29494 2-119, E34K;K37E;R41E;I88G;E89G;V90G;P91G;C92S); test: as above
# Chain of dL7Ae (O29494 2-119 E34K/K37E/R41E/I88G/E89G/V90G/P91G/C92S): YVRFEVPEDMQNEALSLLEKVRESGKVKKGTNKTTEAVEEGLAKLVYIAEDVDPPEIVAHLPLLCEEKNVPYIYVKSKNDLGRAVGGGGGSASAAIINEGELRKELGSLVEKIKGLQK
binder,measurement,setting,value
B1,binding result,"[1]; hairpin, defective kink-turn",no binding
same,binding result,"[2]; hairpin, defective kink-turn",no binding
same,binding result,"[3]; hairpin, defective kink-turn",no binding
same,binding result,"[4]; hairpin, defective kink-turn",no binding
B2,Kd,[1]; hairpin with kink-turn,0.0213 nM
same,binding result,[2]; hairpin with kink-turn,no binding
same,Kd,[3]; hairpin with kink-turn,0.0213 nM
same,binding result,[4]; hairpin with kink-turn,no binding
B3,Kd,[1]; hairpin,1.81 nM
B4,binding result,[3],no binding
B5,binding result,[3],binds
B6,binding result,[3],binds
B7,Kd,"[1]; hairpin, internal loop",1.49 nM
B8,binding result,[3],no binding
B9,binding result,[3],binds
B10,Kd,"[1]; hairpin, asymmetric internal loop (putative kink-turn)",0.00571 nM
B11,binding result,[3],binds
B12,binding result,[3],binds
B13,Kd,[1]; hairpin,200 nM
B14,binding result,[3],no binding
